Drawing on PMC8769072 (2022), this text covers Kd for two molecules.

The target in one test is T1, MAP1A1836-1851 (Homo sapiens (Human), UniProt P78559).
T1 chain: PSWLADIPPWVPKDRP
Description: FP competition.

For a further test, the target named is T2, ITB3763-778 (Homo sapiens (Human), UniProt P05106).
T2 chain: AKWDTANNPLYKEATS
Description: FP competition.

B1: SFN 14-3-3 (protein)
chain: MERASLIQKAKLAEQAERYEDMAAFMKGAVEKGEELSCEERNLLSVAYKNVVGGQRAAWRVLSSIEQKSNEEGSEEKGPEVREYREKVETELQGVCDTVLGLLDSHLIKEAGDAESRVFYLKMKGDYYRYLAEVATGDDKKRIIDSARSAYQEAMDISKKEMPPTNPIRLGLALNFSVFHYEIANSPEEAISLAKTTFDEAMADLHTLSEDSYKDSTLIMQLLRDNLTLWTADNAGEEGGEAPQEPQS
In general, Kd refers to the equilibrium constant for the complex coming apart. Higher therefore signals a looser complex. Regarding B1, the affinity with MAP1A1836-1851, expressed as Kd, was 355 µM.

B2: TLN1 PTB (protein)
chain: GVSFFLVKEKMKGKNKLVPRLLGITKECVMRVDEKTKEVIQEWNLTNIKRWAASPKSFTLDFGDYQDGYYSVQTTEGEQIAQLIAGYIDIILK
On to B2, for which binding with ITB3763-778 was put at a Kd of 500 µM.
